Assay results from the DeepSol protein solubility set.

Assay: soluble on expression in E. coli; label from the status in PepcDB or PDB records

Sequence	soluble on expression in E. coli
MGSDKIHHHHHHMSILEVRGIEKTYSGKRILKAVSFDLESGKLTVLGGLNGIGKSTLIKMMSGDIRPDSGEIVFDGHHVELRSIVEARRIGLSAVYQEYMLVPDLTVAENIFLGSGKFTISRKKMNSEASRLLSKFGLSFDPSSKVSSLSSDEQALLEFAAAVFSEPKVLMIDDLFSVLQTESRKRLLQMIEVIKNKGTAVLVVTTDPDLMLMADHLLFMDESGVEYLPCPIERGAILERMGASSDFSILPAEGELLIEISNLAGSGQDLSLKRGEVLNIFCESGELVRAFTRAMIRQDPFTDNSVPLFREAKSFFDRFSSRSSSTPAEKYFCSNLKNTGLVSQVMLKKSGSFKSSKSLKKSFILNKESVVSVKSFLAGLERIPGFSGLVSEEDKKLSQLRFDACDLYVFVRPLLGLDPVSVNALSTVLQEIVNRSKAAVIISDEAGSSMLSTRKMRSSE	not soluble
VQLLESGPGLVKPAQTLSLSCAVSGGSIRSGGYYWSWIRQHPGKGLEWIGYIYHSGNTYYNPSLKSRIAMSVDTSENKFSLRLNSVTAADTAVYYCARLDGYTLDIWGQGTLVTVSSSTKGPSVFPLAPSSKSTSGGTAALGCLVKDYFPEPVTVSWNSGALTSGVHTFPAVLQSSGLYSLSSVVTVPSSSLGTQTYICNVNHKPSNTKVDKRVEP	soluble
MSLHMSQTTQTDIITLGAVAAKIPQLIPKVPHLLNGLKQAYLRTPSTPAGLGIAFEKAVKRNPDGMALLFEDERYSYQELNEWANQIAHFYLSLGARKGDVIAVMVENRSELLATIVALAKIGVTAALVNTSQTGKVLTHSINLVQPIALIVGEEVRKCVDEIKQDLNLAQDRFHWFANQATRQDAGSAPRDYINLAEKIDHFPKFNPPTTQTVQGKDGLFYIYTSGTTGLPKAVIFTHSRWTLAYGTYGHVLALDENDVMYVTLPMYHATGIVVCWCGVIAGSATLALRRKYSTSAFWKDVQKFNASAIGYVGELCRYLMDAPPSELDRHHRVTKMIGNGMRPNIWDKFKQRFGVKEILELYASSEGNVGFSNIFNFDNTVGFSPTPYAVIAFDKEKNEPIRDQNGYCQKVKTGEVGLLVGKITRRSPFDGYTDPEKNKSVILKNVFKKGDSYFNTGDLVRDIGFRHAQFVDRLGDTFRWKGENVSTTEVENMLCEYEKIVEAVVYGVEIPNTNGRAGMAAITLNDQAEFNDEDMSAMVNTFKKCLPAYAIPVFLRVQKTVETTGTFKYQKNKLKEQAFDPSKTEERLLVLLPGESAYCEVTSEIFDNIQAYKYREGHHHHHH	soluble
MGSDKIHHHHHHMINRKPFFIELELTYKCSQQCIYCHNPPKDLKFYIADKVPKPRSVIEMNELNLSEWISVINQIKRLDEKYEGIMDVVITGGEPLLRSDLEEILSYVTRQKLRHMLLSSGEPISDDRITKLLESGLEKIRINLTSHKYVFNIQSPIMHIKNEVAKKINIAKKFKDFGVKEVGGNIVLTSYYLDFLEEIAELAYKSNLDWIEIHSVIKVGHGYINQKFIVPDPNDERTIQEKLKRLIEIYGENFIQNYVDTDILYSRIPIPTNWGEVGLVIAPNGDIYPSSEATSIPLSKLGNIKNDSLVEIWFNNLLLNKIRSLSFLREPCKSCEVKKLCRGGFRFNAYITKNDLFAPDPSCQIVKDYIGKS	not soluble
MSTETHYKRQLFVILKLFIIMSFMTKCPKCPTYESKKTTNVYRHLREVHNASEAEVDQFRIQRKEGKSLTTKGSGAWKCPVCELVIPTEKGLKNHMNQKHRKKPIDPSTITLATTSPTMVSPPPKRIQLPKSTEKSLVSSVATVRAQPTQKPGGRYKCPVENCTFFKTRKELALHFSEKHDPGSELETMSFETETEFKIWLTCRQEETCSSMQISLSSHDGNRITHFRLCRHEGGQLSLGATKKGATFELSLGATN	not soluble
MGSDKIHHHHHHMGNTVAMILAGGQGTRLGVLTERIAKPAVPFGGKYRLIDFTLSNCVNSGIYRVGVLTQYRPHVLSKHIGIGRPWDLDRKDGGVEILPPYVGRHESDWYKGTANAVYQNLEFLEENDAELVLILSGDHVYAMNYNDLIDYHLLKEADGTIACMEVPIEEASRFGIMITDVDGRIVDFEEKPAKPRSNLASLGIYVFNYEFLKKVLIEDENDPNSSHDFGKDVIPRILRENLGSLYAFRFDGYWRDVGTLRSYWEANLELVLPVPPFNLYDPNWRFFTHTEEMPPAYVAPGSKVSTSLVSEGAEVYGNVFNSVIFQGVKIGRGTVVKNSVIMTRTEIGENCYLENVIIAENVKIGSNVRMGVGEDAESKLDPKVYSGLLTVVGMNSVIPDDMVIGKNCVIGIGVRPEDFKSKTLESGDYVIVREE	not soluble
SPYVFSFKMPQEQGQMFQYYPVYMVLPWEQPQQTVPRSPQQTRQQQYEEQIPFYAQFGYIPQLAEPAISGGQQQLAFDPQLGTAPEIAVMSTGEEIPYLQKEAINFRHDSAGVFMPSTSPKPSTTNVFTSAVDQTITPELPEEKDKTDSLREP	soluble
MSLGEVAPTLAAYDLQGEAVALEQWEGKLVYLNFWSVNCGGCLAEMATLNQLSQEYQDQAVVVAINTDPEQVEIAPVLAQHNINYPVIRDQLGITQERYQVIGTPTSFLIDRNGKVIEWHQGVRNEQELTALFKQKVSEKEGHHHHHH	not soluble
MSLIGVIGVKRNVDIAIREKLALYPKKHKKYVGELLNSFKEVVILNTCNRTEIYFNCTEEISEDEIFDKIFNVFNWNDDLKKYMFLSKEKRAVTHLMEVICGFHSRILGEDQILGQIKGAYKTAISDNSISSELQKMFEIAIACGKKFKTECKMFEVPVSSVSISINSALLKGCRKFMVLGYGEIGKLAIKHLLSHKVECIYLIVRDKSKASDLEGEIVEVLDFNEKNQVINEIDCIVSCTAAPHTVVRNEDIKTEGETIHIYDLAVPRDVDKELSEKERVILKDIDEISKIDDKNKKIRKERMEEYKHIVEESIDEFLNWLKIREVSSKIRNIKIRENEICSERIKTFSNKGNGENAKLAERMIKSTADAYVNRAIELLKSEALKGSDSYCAEIIEKIFLTEGHHHHHH	soluble
MSLGKALEIDLGNRLQALDIDGPTREILRECRPIIEKIIDEAVLDSYNKILAYPEVRDAYAGMKIEDACQAQRTHWIDDVFAGTFAEEQIRNGVEIFSKRQRQGLSLRWYFCFYSNILRCMIAAVYPQYRRDKEKLQRVIGALTRTVMFELEIASTAYMHSAQEQVAVALNDAAGQFEREGHHHHHH	soluble
MSNWPYPHIVAHRGGGKLAPENTLAAIDVGARYGHTMIEFDAKLSKDGEIFLLHDDNLERTSNGWGVAGELNWQDLLRVDAGGWFSGEFKGEPLPLLSQVAERCRKHGMMANIEIKPTTGSGRLTGRVVALAARELWAGMTPPLLSSFEIEALEAAQAAAPELPRGLLLDKWREDWRELTTRLGCVSLHLNHKLLDETRVQEIKAAGLRILVYTVNQPQRAAELLRWGVDCICTDRIDDIGPHFQF	not soluble
MGHHHHHHSHGTRMDHRSDLVFLADLRPEEIRYRLQHYFKFLFVREPLERLLSAYRNKFGEIREYQQRYGAEIVRRYRAGAGPSPAGDDVTFPEFLRYLVDEDPERMNEHWMPVYHLCQPCAVHYDFVGSYERLEADANQVLEWVRAPPHVRFPARQAWYRPASPESLHYHLCSAPRALLQDVLPKYILDFSLFAYPLPNVTKEACQQ	not soluble
MSLSTIKDIARVAGVSVATVSRVVNNDPKVKEKTKLKVTKVMLDLNYTPNANARALVTQKNTTIGVIIPSLTDPFFASLANGVEQVARQQSMQLLLSTGLVSAESERQAINLLRERRCDVMVVHSKKLTDDELIALSEQIPGLVLIDRHIEQISHRCVWLDNLEGGKIAARHLLALNHQKFASISSKYQIEDPGLRLEGFTRELTGAGFAIDKELIEYGEPNLQGGEIATQHLLSSGKTFSALFVYNDAMAIGAISTLEDNGYRVPQDISVIGFDDVLLSRYSRPKLSTLNYPIEEMAQQAANLAIELTKERKAAKDEYKVESKTHKYVPRLVKRESTSLEGHHHHHH	soluble
MGSSHHHHHHSSENLYFQGHMLANNNKRSKLSTVPSSRPIRVGFVGLTSGKSWVAKTHFLAIQQLSSQFQIVALYNPTLKSSLQTIEQLQLKHATGFDSLESFAQYKDIDMIVVSVKVPEHYEVVKNILEHSSQNLNLRYLYVEWALAASVQQAEELYSISQQRANLQTIICLQGRKSPYIVRAKELISEGCIGDINSIEISGNGGWYGYERPMRSPEYLYDIESGVNLISNSFGHTIDVLQYITGSYFQKINAMISNNIPTQFLLDENGKRTKETISKTCPDHLLFQGILENGKVPVSCSFKGGTPVKKLTKNLVIDIHGTKGDLKIEGDAGFVEISNLVLYFYGIKNGNGSSNGTDNNGAAAIKDKEKVTKSPSPSTGTSEEEQTMEVFHLRNYNSVVGNILRIYESIADYHFLGKPESKSSRGPDDLFASTKFDKQGFRFEGFPTFKDAIILHRLIDAVFRSDKEEKTLDVSKIMI	soluble
MSKSNQKIASIEQLSNNEGIISALAFDQRGALKRMMAKHQTEEPTVAQIEQLKVLVAEELTQYASSILLDPEYGLPASDARNKDCGLLLAYEKTGYDVNAKGRLPDCLVEWSAKRLKEQGANAVKFLLYYDVDDAEEINIQKKAYIERIGSECVAEDIPFFLEVLTYDDNIPDNGSVEFAKVKPRKVNEAMKLFSEPRFNVDVLKVEVPVNMKYVEGFAEGEVVYTKEEAAQHFKDQDAATHLPYIYLSAGVSAELFQETLKFAHEAGAKFNGVLCGRATWSGAVQVYIEQGEDAAREWLRTTGFKNIDDLNKVLKDTATSWKQRK	soluble
MEQDNSPQKIQFTVPLLEPHLDPEAAEQIRRRRPTPATLVLTSDQSSPEIDEDRIPNPHLKSTLAMSPRQRKKMTRITPTMKELQMMVEHHLGQQQQGEEPEGAAESTGTQESRPPGIPDTEVESRLGTSGTAKKTAECIPKTHERGSKEPSTKEPSTHIPPLDSKGANSV	soluble
MGHHHHHHSHMHISGVFATKDAVAVWNGRQVAIFELSGAAIRSAGTFLCETPVLAMHEENVYTVESNRVQVRTWQGTVKQLLLFSETEGNPCFLDICGNFLVVGTDLAHFKSFDLSRREAKAHCSCRSLAELVPGVGGIASLRCSSSGSTISILPSKADNSPDSKICFYDVEMDTVTVFDFKTGQAWCLALVEVGPKGPSARDASAETRVWETPHALHLPAPPSWRGPGSVGKGSCER	not soluble
LHIDTEWRSDFKWDRLAEHISDLSGKYVLDIGCGSGYHLWRMRGAGAKFVVGIDPTQLFLMQFNAIKHFIDDSPVHLLPLGVEQLPELKAFDTVFAMGVLYHRRSPIDFLYQLKAQLVKGGELVLETLIVDG	not soluble
MAEATVLIPAFNEEATVGRVVRVAREAGFPVVVADDGSKDETARRALEAGAEVVRLKENRGKGGAIAEGLKAVRTPFVLLLDADLLGLRPEHLFALLKPLKEGEARMAVGVFRGGRASTDLAMRLTPFLSGQRALRLEDLRSVPGLERARYDLELLLTRHAKRAGWPVVYVPMEGVSQVMKEEKRGVLAGLGHRLRMYWEILRYRLRAR	soluble
MGSDKIHHHHHHMSVGRIGFIGTGSITEAIVTGLATCADVPTEVWLSPRNAQIADRLAQAYPMVQVAGENQEVVDRCDVVCLAVRPQVAESVLQALRFSGRHHVISFIATYGLDKLRTLIAPAKTLVRAAPLPTVAEHLCNTLVFPADDIARSLFTQLGGAIEVGSEEAFDVLFSATATMGSYFALLHNQARWLEQHGSTYSEARDYLASLHFGLASVARKTQTRFDELSKEFTTAGGLNEQVLDALGAHRVFNAFDDAFDQVLHRIGGTVSQRNE	not soluble
